Experimental data taken from patent publication US20190185531A1.

Experiments:
Experiment in all cases: competition fluorescence anisotropy against fluoresceinated Bim BH3
[1] = biological target: Bcl-2 (c-myc-tagged) (human) (UniProt P10415)
[2] = biological target: T1, Bcl-w (c-myc-tagged) (human) (UniProt Q92843)
T1 sequence (looked up): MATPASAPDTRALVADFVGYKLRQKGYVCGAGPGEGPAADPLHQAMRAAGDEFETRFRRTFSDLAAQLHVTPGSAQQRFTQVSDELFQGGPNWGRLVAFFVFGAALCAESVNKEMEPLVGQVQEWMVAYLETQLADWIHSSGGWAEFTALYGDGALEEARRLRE

[3] = biological target: Bcl-xL (c-myc-tagged) (human) (UniProt Q07817)
Chain of Bcl-xL (c-myc-tagged) (human) (Q07817 1-209): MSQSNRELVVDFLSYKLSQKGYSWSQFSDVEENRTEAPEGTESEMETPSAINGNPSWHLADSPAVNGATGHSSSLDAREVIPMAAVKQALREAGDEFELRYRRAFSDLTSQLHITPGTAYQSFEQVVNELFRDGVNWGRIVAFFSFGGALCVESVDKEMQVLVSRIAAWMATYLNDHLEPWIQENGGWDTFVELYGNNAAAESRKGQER

[4] = biological target: human Mcl-1 (c-myc-tagged) (human) (UniProt Q07820)
Chain of human Mcl-1 (c-myc-tagged) (human) (Q07820 172-327 limits assumed): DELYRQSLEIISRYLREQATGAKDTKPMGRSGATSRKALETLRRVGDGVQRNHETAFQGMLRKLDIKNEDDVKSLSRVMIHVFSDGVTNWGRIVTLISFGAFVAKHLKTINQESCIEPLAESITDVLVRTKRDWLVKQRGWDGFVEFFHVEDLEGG

Chain of Bcl-2 (c-myc-tagged) (human) (P10415 1-217 limits assumed): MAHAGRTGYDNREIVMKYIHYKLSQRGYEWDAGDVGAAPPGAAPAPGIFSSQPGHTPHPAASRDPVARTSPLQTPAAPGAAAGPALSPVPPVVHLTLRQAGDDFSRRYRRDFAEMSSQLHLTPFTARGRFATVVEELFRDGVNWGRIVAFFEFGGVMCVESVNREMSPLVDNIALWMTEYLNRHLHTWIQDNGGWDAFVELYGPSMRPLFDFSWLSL

- fold specificity for Bfl-1 relative to this protein [1]: > 150 fold
- fold specificity for Bfl-1 relative to this protein [2]: > 150 fold
- fold specificity for Bfl-1 relative to this protein [3]: > 150 fold
- fold specificity for Bfl-1 relative to this protein [4]: > 150 fold
Binder: Ac-QWVREIAAGLRLAADNVNAQLER-NH2 [FS1]
